From the DeepSol protein solubility set

Experiment: soluble on expression in E. coli; label from the status in PepcDB or PDB records

Row | Sequence | soluble on expression in E. coli
1 | MAHHHHHHMEDTINVFGRGTPAGEAIYRCYVAPSKPSTLDPQLAALLARRRQEREAAEAAQAHPKPIPKSKAPVHRPRVGMGKRPTEEEYARWRLQHIPHRRSKAAIEAEEEAHRWVPPPVSERFARPAITDAEKDRLADVMAYGAELPKPKEFTGVQRARFHRLEPRAELEDRFTKLRQTAQEVQSELAQLRQSAPGAGASLPSGGRVVESVSDPQARLSQRRSCGGGGDPATASPCPLASAASPGAAAARDVLSIGGTRVGRQGDSKMSTIERCRQERELQSHLGTVIAEMEAVDRELNRLPISS | soluble
2 | MSLDKPYHVKFYSYNFPLPKPVVTAHGHWQRRRGLIVELTDQRGNRGRGEIAPLPWFGTEDLASATDFCRSLKGRITPAQIEKIGDRLPCCGFAFGSAEWELESGSVIENSPNSLSYCQLLPTGEAALDYLASNPQLGASTFKWKIGVGDFAVERDLYGQLWRRLPEGCQIRLDANGGLSVDIAQQWLTLLDRQRENSGPKIQYLEQPLPPGEIDEMFRLQEDFATSIALDEAVCSLAQLAQLYDKGWSGLYILKAAIMGNPRVLNHWLKTHPIPAIFSSVFETAIARGQVLALAQKWNLPDHAVGFAPLREPITEATPDSVEGHHHHHH | soluble
3 | MHGSQKDTTFTKIFVGGLPYHTTDASLRKYFEGFGDIEEAVVITDRQTGKSRGYGFVTMADRAAAERACKDPNPIIDGRKANVNLAYLGAKPRSLQTGFAIGV | soluble
4 | SLPERGKTETADGEVFLQWLRQSVTDGMLSVNESDSVLHILARFVFVASPDVFYKYTSSAGDAVQDKKQLQKSFEALSVHHSRNGKGLYHYHKYDAPDKSGGFIKVSGYMIETNLIFRKGSCPSDSIWLSPRS | soluble
5 | MGSDKIHHHHHHMSERLRVLVVSHGHPAMSLGGAEIASHSLHKGLNTLPGVESIYLARVGHPVPRHGASALMSLRLAVDEVLFHADDYDHFFLSNGDTEAIRRDLLRFIGDLSPHVIHFHHLIGMGMEALYALREALPEAVIVVTFHEYLSLCHNHGQMVKRPSAQLCNSSSPISCHGCFPDIPVSRFLRREEFLRGMLGLADAFISPSMFLANRYVEWGIDAEKLSVIDNGIVMGEAAPVRDLPVPSARRNRFAYFGQMTPFKGIDVLVDAVSRVPEEIWGEDSCLMIFGGNLERQPAEFQERLKKLIDDAGRRVRFYGAYQNADMPRLMRSVDWVVLPSIWWENSPVVIQEALHHRRPIICSDIGGMAEKVQDGRDGLHFRAGSAQDLADRLSDVLVKPEAWDRLHATLRPPTGHAESARAHADLYRRLLKDRRSPLGAAQYEAAAQAVV | not soluble
6 | MMQPVIRKNHMDIAWHEYTDENGADIPVTQASLTEKASIIGRVGIMFLSCGTGAWRVRSSMNTLAEIMGITCTADIGLMSIEYTCFDGEEGFTQSLCLTNTGVNTSKLNRLEHFIREFEIDGKDMSGEELHTLLDDIER | not soluble
7 | GKPIRSPGVLLDIDSRRTAEAERDRLNELLQIFTAAVPGVVYAKDLEGRMLVANRGTAELVGKPPEFFIGKTDLEFLDDEQQARVLMETDQRIMQSNVSEQIEEKVNLADGSAAIWLSTKAPLLDRN | not soluble
8 | MVLARREALDPRYQYDAALAAAKKGEAAIAVPAGVMIAGYWPIRSEIDPRPLLSAFRAKGARLCLPVVLDAETIAFREFLPDAELVPTGFGTMGPDEHAPLVDPAIMLMPLAGFDRLGHRLGYGAGHYDRALARFAERGLQPLLIGMAFDCQEVDYVPNEPHDIALHQILTESGLRSRAMDLEHHHHHH | not soluble
9 | MAQSSAQLLFDESGQPFIVMREQENQKRITGVEAVKSHILAARAVANTLRTSLGPRGLDKMLVSPDGDVTITNDGATIMEKMDVQHHVAKLMVELSKSQDHEIGDGTTGVVVLAGALLEEAEKLIDRGIHPIKIADGFDLACKKALETLDSISDKFPVENRERLVETAQTSLGSKIVNRSLRQFAEIAVDAVLSVADIESKDVNFEMIKMEGKVGGRLEDTILVKGIVIDKTMSHPQMPKELKNAKVAILTCPFEPPKPKTKHKLDITSTEDFKALRDYERETFETMIRQVKESGATLAICQWGFDDEANHLLQANDLPAVRWVGGPEIELLAIATNARIVPRFSELSKEKLGTAGLVREITFGAAKDRMLSIEQCPNNKAVTIFVRGGNKMIIDEAKRALHDALCVIRNLVRDSRIVYGGGSAELAAAIQVAKEADRIDGIEQYAFRAFADALESIPMALAENSGLAPIDALSDLKAKQIETGKSSLGIDAVFAGTNDMKEQKVIETLLSKREQISLATQVVRMILKIDDVRVPDDERMGY | not soluble
10 | MWIEELANGKFKYIERYTDPLTNKYKKVSVTLDKNSSQAQKKAGLILQEKIEDRLAIRNHSEMTYGELKKEYLKQWIPTVKDSTKRGYLVSDSHIATVLPDDTIINKLTKRDIRLIIDKLLKHNSYHVTHKCRKRLHAIFSYAIQMDYMTSNPTENVLVPKPKDDYKPEKVLYLTSNEVYDLCNRMIDNDEQTLADIVLFMFLTGVRYGELSCLTYDKIDFENKEILINATYDFNTREITTTKTKKSTRKISVSDNILDIVNRQKKTSSFVFPNSNGVPILNAYINKRLKIYGDYHTHLFRHSHISFLAEKGIPLNAIMDRVGHSDPKTTLSIYSHTTVNMKEIINKQTAPFVPLLKSE | not soluble
11 | MSLKRALAALVLLGAVAQAQTGHAGHSVGSVSTGVSMPAMSKQMVSALGPLRGRAFDIKFAQLMMDHHQMALDMAGQELSSGKNAQVRAAAKKVVAAQQQEIALMTGWLRKWTGKVYVPQTLPMVLTGTVNTDRWFLTEMLPHHQGAVDMSKLAAGRSGSSEVKKLALSIIRSQTAEMNTYRQLLKTVKEGHHHHHH | soluble
12 | MTYDYVIGMDACKYFHHACVLDIDGTQVLSKRINQNEQSLRALFSAFSAYDHKVLVVVDQPNNIGRLTVAVAQDIGIDVRYLPGLAMRQLSRIHAGNAKTDIRDAYIIAHAAKNLPESLRSVDRVEEAFLQLKVLNGIDEDLARSYTRLINQIRSALVGCYPQFEQALRGQIIHRKWVLHLLARYGGPTKIKRLGKAKAAAFARRYKARNPEPVLDAIFAAISEQTVTIAGAHYAEMGVAMSAKDALLKLEHRQQIEKEVIELINDIPHTQFLLSMPGIGPKTAAQILMTAGDMSDFPSAGHLASYAGLSPRTNQSGTSIMSNSLNRAGNKKLKNALWQSSFASIRFHERSRQFYERKRREGKRHNAAVVALARRRLNVLYAMMRNHEHYHDPAPSQEDLAA | not soluble
13 | MSEQLVTPENVTTKDGKINLLDLNRQQMREFFKDLGEKPFRADQVMKWMYHYCDNFDEMTDINKVLRGKLKEVAEIRAPEVVEEQRSSDGTIKWAIAVGDQRVETVYIPEDDRATLCVSSQVGCALECKFCSTAQQGFNRNLRVSEIIGQVWRAAKIVGAAKVTGQRPITNVVMMGMGEPLLNLNNVVPAMEIMLDDFGFGLSKRRVTLSTSGVVPALDKLGDMIDVALAISLHAPNDEIRDEIVPINKKYNIETFLAAVRRYLEKSNANQGRVTIEYVMLDHVNDGTEHAHQLAELLKDTPCKINLIPWNPFPGAPYGRSSNSRIDRFSKVLMSYGFTTIVRKTRGDDIDAACGQLAGDVIDRTKRTLRKRMQGEAIDIKAV | not soluble
14 | MGHHHHHHSHMVGLDIDSRLIHSARQNIRHYLSEELRLPPQTLEGDPGAEGEEGTTTVRKRSCFPASLTASRGPIAAPQVPLDGADTSVFPNNVVFVTGNYVLDRDDLVEAQTPEYDVVLCLSLTKWVHLNWGDEGLKRMFRRIYRHLRPGGILVLEPQPWSSYGKRKTLTETIYKNYYRIQLKPEQFSSYLTSPDVGFSSYELVATPHNTSKGFQRPVYLFHKARSPSH | not soluble
15 | MAKENPPIVFGPVLSRRFGKSLGVDLSPSKKQCNYNCIYCELGKAKPIERMEEVIKVETLINAIQNALNNLTTPIDVLTITANGEPTLYPHLLELIQSIKPFLKGVKTLILSNGSLFYEPKVQQALKEFDIVKFSLDAIDLKAFERVDKPYSKDINKILEGILRFSQIYQGQLVAEVLLIKGVNDSANNLKLIAAFLKQINIARVDLSTIDRPSSFKAPKLSEDELLKCSLFFEGLCVSLPKRSITQAKKLISCGIDELLALISRRPLSAEEAPLILDSNAFKHLETLLNHKQITIKKVGSLEFYCAFLEHHHHHH | not soluble
16 | MAKSYDYQSAFDIIGPVMMGPSSSHTAGAVKIGNSARAILGDIPKNIEIHYYESFAQTHQGHGTDVAIVGGAMGYSTFDNRIKSSLEIAADDGIKIDIIEEEGDSIGQHPNCAYIKSSRNDGRYIEIIGISIGGGTIKIKGIHINGLEVDLNHGLPILVVDGNMTKAQVNHFINDINDMKLDCKDEFIKIDEDKCLVVIPLNKAISESTLNTIKEKYSDVNVSYIN | not soluble
17 | MAHHHHHHMIRINENSKMSSNLSNENEVTYEKNNNIKNKLEEKYKNFLKLKNMNSHMGASQNMNVNNNYTMNELEEFEKINNNYNNNNNNINNNINNYYDYMNIKVSQSVQHNKRLQDFYNNKNSFQHYIKKLKTCRFDADDIRNLLEKRLAYERDNTLIKNIQEEENKKGIGINGNFGSESNSSSSNYDNNYLLYRKINRLNKTNTNKSKNRSRKRKRINSKIDKKYIIKCRACKFINPNGFKIEDYYTCQNCGYNDFSVIRSTSPNNAD | not soluble
18 | MVKLRDWQEKLKDKVIEGLRNNFLVALNAPTGSGKTLFSLLVSLEVKPKVLFVVRTHNEFYPIYRDLTKIREKRNITFSFLVGKPSSCLYAEKGAESEDIPCKYCELKGSIVEVKTDDSPLSLVKKLKKDGLQDKFCPYYSLLNSLYKADVIALTYPYFFIDRYREFIDIDLREYMIVIDEAHNLDKVNELEERSLSEITIQMAIKQSKSEESRRILSKLLNQLREVVLPDEKYIKVENVPKLSKEELEILADDYEDIRKDSLKQGKVNKIHIGSILRFFSLLSIGSFIPFSYSKRLVIKNPEISYYLNLLNDNELSIILMSGTLPPREYMEKVWGIKRNMLYLDVEREIQKRVSGSYECYIGVDVTSKYDMRSDNMWKRYADYLLKIYFQAKANVLVVFPSYEIMDRVMSRISLPKYVESEDSSVEDLYSAISANNKVLIGSVGKGKLAEGIELRNNDRSLISDVVIVGIPYPPPDDYLKILAQRVSLKMNRENEEFLFKIPALVTIKQAIGRAIRDVNDKCNVWLLDKRFESLYWKKNLKCLNANKMKL | soluble
19 | MGSDKIHHHHHHAQTLPFRLSKGAGTFRLGVVCGNESCWLDQCSVKKKGQAYTIKDKLWKEGEIKLIVCPLTDSNGFIMEVSGERLPEEFKLCWAFGACDGADDSAVTDNSIPVASCFHNVFSIEGNAFTTYYGESMKLRTVHGVSPIGSEIRLSDGHKQASPLALFNSGKKTDAPVISALCPWKPQEKLYFCFYQRGDYNYFMLPGLFGKEHKTRSK | not soluble
20 | MSDATLHATDQNPDDFAVQIADQIESFLVAVTEVAKGDEPDSAVPFLLLEVSQLMLAGGRLGAHEDIVPDERYEPDPGPELDVDEIRENLARILDPVDVYSEVFDPYEPRKAPVPARISDDLTDVITDLRHGMVHYKAGRTTEALWWWQFSYFSNWGSTASATLRALQSVVAHVRLNQPLEELDGLDTDQELGEETLESEAGRVMVREIAAPLGLRPVKLEHHHHHH | soluble
21 | MSLTKQVYIIHGYRASSTNHWFPWLKKRLLADGVQADILNMPNPLQPRLEDWLDTLSLYQHTLHENTYLVAHSLGCPAILRFLEHLQLRKQLGGIILVSGFAKSLPTLQMLDEFTQGSFDHQKIIESAKHRAVIASKDDQIVPFSFSKDLAQQIDAALYEVQHGGHFLEDEGFTSLPIVYDVLTSYFSKETREGGSHHHHHH | soluble
22 | MMTKTQINKLIKMMNDLDYPFEAPLKESFIESIIQIEFNSNSTNCLEKLCNEVSILFKNQPDYLTFLRAMDGFEVNGLRLFSLSIPEPSVKNLFAVNEFYRNNDDFINPDLQERLVIGDYSISIFTYDIKGDAANLLILEHHHHHH | not soluble
